The test system of test [1] is luminescent P. aeruginosa serogroup 05 strain (PAO1.lux). Kind of test: Opsonophagocytic killing (OPK) assay, PAO1.lux. It counts as cell-based, Pseudomonas aeruginosa. The note with it: FIG. 11 A-Q. The method, then:
This example describes the evaluation of prioritized human IgG1 antibodies to promote OPK of P. aeruginosa. […] OPK assays were performed as described in (DiGiandomenico, A., et al., Infect Immun 72, 7012-7021 (2004)), with modifications. Briefly, assays were performed in 96-well plates using 0.025 ml of each OPK component; P. aeruginosa strains; diluted baby rabbit serum; differentiated HL-60 cells; and monoclonal antibody. In some OPK assays, luminescent P. aeruginosa strains, which were constructed as described (Choi, K. H., et al., Nat Methods 2, 443-448 (2005)), were used. Luminescent OPK assays were performed as described above but with determination of relative luciferase units (RLUs) using a Perkin Elmer ENVISION Multilabel plate reader (Perkin Elmer).

The test system of test [2] is P. aeruginosa (6077 exoU+; 6206) lysis of rabbit red blood cells. Kind of test: Rabbit red blood cell (RBC) lysis inhibition assay. Type of test: cell-based, Pseudomonas aeruginosa. The note with it: strain 6077; FIG. 12D-E. The method, then:
Percent inhibition of cytotoxicity analysis was analysed for the parental V2L2 mAb, mAb166 (positive control) and R347 (negative control), where the antibodies were administered to cultured broncho-epithelial cell line A549 combined with log-phase P. aeruginosa strain 6077 (exoU+) at a MOI of approximately 10. A549 lysis was assayed by measuring released lactate dehydrogenase (LDH) activity and lysis in the presence of mAbs was compared to wells without mAb to determine percent inhibition. The V2L2 mAb, mAb166 (positive control) and R347 (negative control) were evaluated for their ability to prevent lysis of RBCs, where the antibodies were mixed with log-phase P. aeruginosa 6077 (exoU^+) and washed rabbit red blood cells (RBCs) and incubated for 2 hours at 37°. Intact RBCs were pelleted and the extent of lysis determined by measuring the OD405 of the cell-free supernatant. Lysis in the presence of anti-PcrV mAbs was compared to wells without mAb to determine percent inhibition. The positive control antibody, mAb166, is a previously characterized anti-PcrV antibody (J Infect Dis. 186: 64-73 (2002), Crit Care Med. 40: 2320-2326 (2012)).

The subject of test [3] is P. aeruginosa strains (PAO1, 33356, 6294, 6077, 6206, PA103A). Briefly: Acute pneumonia model in mice, survival. Type of test: in vivo, Pseudomonas aeruginosa. The following applies: strain 6077 (1×10^6 CFU/animal) intranasal; mAbs IP 24 hours prior; 11A6, 3G5, V2L7 5 or 1 mg/kg, 29D2 and V2L2 25 mg/kg; FIG. 13E-G. As to the method: Antibodies or PBS were administered 24 hours before infection in each model. P. aeruginosa acute pneumonia, keratitis, and thermal injury infection models were performed as described (DiGiandomenico, A., et al., Proc Natl Acad Sci USA 104, 4624-4629 (2007)), with modifications. In the acute pneumonia model, BALB/c mice (The Jackson Laboratory) were infected with P. aeruginosa strains suspended in a 0.05 ml inoculum. In the thermal injury model, CF-1 mice (Charles River) received a 10% total body surface area burn with a metal brand heated to 92° C. for 10 seconds. Animals were infected subcutaneously with P. aeruginosa strain 6077 at the indicated dose. For organ burden experiments, acute pneumonia was induced in mice followed by harvesting of lungs, spleens, and kidneys 24 hours post-infection for determination of CFU.
The in vivo effect of administration of an anti-PcrV antibodies was studied in mice using an acute pneumonia model. Groups of mice were treated with either increasing concentrations of the V2L2 antibody, a positive control anti-PcrV antibody (mAb166), or a negative control (R347), as shown in FIG. 13 (A-B). Groups of mice were also treated with either increasing concentrations of the V2L2 antibody, the PcrV antibody PcrV-02, or a negative control (R347), as shown in FIG. 13 (C-D). Twenty-four hours after treatment, all mice were infected with 5×10^7 CFU (C) Pseudomonas aeruginosa 6294 (06) or (D) PA103A (O11).
Groups of mice were treated with either increasing concentrations of the 11A6, 3G5 or V2L7, the same concentrations of 29D2, 1F3, 1E6, V2L2, LE10, SH3, 4A8, 2H3, or 21F1, increasing concentrations of the 29D2, increasing concentrations of the V2L2, the PcrV antibody PcrV-02, or a negative control (R347), as shown in FIG. 13 (E-H). Mice were injected intraperitoneally (IP) with mAbs 24 hours prior to intranasal infection with Pseudomonas strain 6077 (1×10^6 CFU/animal).

Numbering of substitutions follows the chain as printed.

B1: Psl0225: lead optimized anti-Psl clone; VH SEQ ID NO:290, VL SEQ ID NO:291 (antibody, V domains shown)
VH: QVQLQESGPGLVKPSETLSLTCTVSGGSISPYYWTWIRQPPGKGLELIGYIHSSGYTDYNPSLKSRVTISGDTSKKQFSLKLSSVTAADTAVYYCARAMDIEPHALDIWGQGTMVTVSS
VL: DIQLTQSPSSLSASVGDRVTITCRASQSIRSHLNWYQQKPGKAPKLLIYGASNLQSGVPSRFSGSGSGTDFTLTISSLQPEDFATYYCQQSDDGFPNFGGGTKVEIK
modifications: Psl0225-Germline VH; Psl0225-Germline VL
On to B1, for which the “OPK activity of lead optimized anti-Psl mAbs” value (“OPK activity” below) in test [1] is reported as “enhanced OPK activity”.

B2: Psl0588: lead optimized anti-Psl clone; VH SEQ ID NO:292, VL SEQ ID NO:293 (antibody, V domains shown)
VH: B1 VH with M99D, I101P, E102F, H104G, A105Y
VL: B1 VL with D93T, G94F, F95P, P96L, N97K
modifications: Psl0588-Germline VH
Consider B2, for which the “OPK activity” value in test [1] is given as “enhanced OPK activity”.

B3: Psl0337: lead optimized anti-Psl clone; VH SEQ ID NO:295, VL SEQ ID NO:296 (antibody, V domains shown)
VH: B1 VH with M99D, D100W, I101D, E102H, P103K
VL: B1 VL with Q90D, D92S, D93S, G94W, F95P, P96L, N97T
modifications: Psl0337-Germline VH; Psl0337-Germline VL
Take B3: the “OPK activity” value in test [1] is “enhanced OPK activity”.

B4: V2L2-GL: V2L2-germlined mAb (antibody, V domains shown)
VH: EVQLLESGGGLVQPGGSLRLSCAASGFTFSSYAMNWVRQAPGKGLEWVSAITISGITAYYTDSVKGRFTISRDNSKNTLYLQMNSLRAEDTAVYYCAKEEFLPGTHYYYGMDVWGQGTTVTVSS
VL: AIQMTQSPSSLSASVGDRVTITCRASQGIRNDLGWYQQKPGKAPKLVIYSASTLQSGVPSRFSGSGSGTDFTLSISSLQPDDFATYYCLQDYNYPWTFGQGTKVEIK
modifications: V2L2-GL VH; V2L2-MD and V2L2-GL VL
notes: V2L2-germlined mAb
Consider B4, for which the “prevention of RBC lysis” value in test [2] is recorded as “demonstrated prevention of RBC lysis”.

B5: 29D2: anti-PcrV mAb, epitope class 3 (antibody, V domains shown)
VH: EVQLLESGGGLVQPGGSLRLSCAASGFTFSSYAMSWVRQAPGKGLEWVSAISGSGYSTYYADSVKGRFTMSRDNSKNTLYLQMNSLRAEDTAVYYCAAEYSISSNYYYGMDVWGQGTTVTVSS
VL: DIQLTQSPSFLSASVGDRVTITCWASQGISSYLAWYQQKPGKAPKLLIYAASTLQSGVPSRFSGSGSGTEFTLTISSLQPEDFATYYCQQLNSSPLTFGGGTKVEIK
modifications: 29D2 VH; 29D2 VL
On to B5, for which, in test [3], the protection in vivo entry is listed as “provides protection in vivo”. Moreover, the “prevention of RBC lysis” value in test [2] is reported as “demonstrated prevention of RBC lysis”.

The values above are taken from US11203633B2, “Polynucleotides encoding antibodies or antigen binding fragments thereof that bind pseudomonas perv” (priority 2011, dated 2021).
